The target in experiment [1] is recombinant S5aΔVWA (human). The experiment in a line: ITC. In general terms: In ITC the heat of successive injections is recorded.
Experiment [2] concerns the target recombinant full-length S5a (human) (UniProt P55036). Kind of experiment: ITC.

Kd data for two substances are collected here from publication PMC4263443.

Sequence of UniProt P55036 (P55036 whole entry): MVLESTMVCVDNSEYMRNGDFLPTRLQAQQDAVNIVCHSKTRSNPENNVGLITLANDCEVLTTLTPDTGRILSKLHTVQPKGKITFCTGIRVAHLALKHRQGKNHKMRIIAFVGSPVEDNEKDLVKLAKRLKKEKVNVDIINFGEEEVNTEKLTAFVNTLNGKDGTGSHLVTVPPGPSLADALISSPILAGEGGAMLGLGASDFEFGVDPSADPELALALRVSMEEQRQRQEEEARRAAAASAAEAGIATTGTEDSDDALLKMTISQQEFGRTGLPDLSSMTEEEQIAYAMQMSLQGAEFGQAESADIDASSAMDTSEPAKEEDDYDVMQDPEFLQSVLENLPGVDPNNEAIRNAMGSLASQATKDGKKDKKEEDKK

Usually Kd stands for a measure of binding affinity in units of concentration. Take “monoubiquitin (from UniProt P0CG47 1-76) (natural protein)”: the Kd in experiment [1] came out at 84 µM.
For “monoubiquitin (from UniProt P0CG47 1-76) (natural protein; other documents disagree on this pair)”, in experiment [2], the Kd stood at 112 µM.
